Measured values as given in article PMC3630103.

B1: CHK-102 (mouse monoclonal antibody) (antibody, V domains shown)
VH: QVQLQQSGAELVKPGASVKISCKTSGYAFSSFWMHWVKQRPGKGLEWIGQIYPGDGDTNYNGKFKDKATLTADKSSNTAYMQLTSLTSEDSAVYFCARNLLFDYWGQGTTLTVSS
VL: EILMTQSPAILSVSPGERVSFSCRASQSIGSNIHWYQQRTNGSPRLLIKYASESISGIPSRFSGSGSGTDFTLSINSVESEDIADYYCQQNNIWPFTFGSGTKLEIK
B2: CHK-166 (mouse monoclonal antibody) (antibody, V domains shown)
VH: EVRLVESGGGLEQPGGSLKLSCAASGFTFSDYFMYWVRQTPEKRLEWVAYISNGGISTFYSDAVKGRFTISRDNARNTLYLQMSRLKSEDTAIYYCVRQVYGQGYFDYWGQGTTLAVSS
VL: QIVLIQSPAIMSASLGERVTMTCTASSSVSSSYLHWYQQKPGSSPKLWIYSSFSLASGVPARFSGSGSGTSYSLTISTMEAEDAATYYCHQYLRSPWTFGGGSKLEIK
B3: CHK-152 (mouse monoclonal antibody) (antibody, V domains shown)
VH: QVQLQQPGAALVKPGASAMMSCKASGYTFTSYWITWVKQRPGQGLEWIGDIYPGTGRTIYKEKFKTKATLTVDTSSSTAFMQLNSLTSEDSAVYYCARGYGSPYYALDYWGQGTSVTVSS
VL: DIVLTQSPASLAVSQGQRATISCKASQSVDYDGDSYVNWYQQKPGQSPKLLIYDASNLESGIPARFSGSGSGTDFTLNIHPVEEEDVATYYCQESNEDPRTFGGGTKLEIK
B4: CHK-263 (mouse monoclonal antibody) (antibody, V domains shown)
VH: QVQLQQSGAELVKPGASVKISCKASGYAFSSYWMNWVKQRPGKGLEWIGQIYPGDGDTNYNGKFKGKATLTADKSSSTAYMQLSSLTSEDSAVYFCARGGLTIDYWGQGTTLTVSS
VL: DIVLTQSPATLSVTPGDSVSLSCRASQSISDNLHWYQQKSHESPGLLIKYASQSISGIPSRFSGSGSGTDFTLSINSVETEDFGMYFCQQSNSWPYTFGGGTKLEIK

Assays:
[1] = target: CHIKV-IbH35 virus (West African genotype), envelope glycoproteins E2-E1 (Chikungunya virus (strain IbH35))
[2] = target: CHIKV-RSU1 virus (Asian genotype), envelope glycoproteins E2-E1 (Chikungunya virus (strain RSU1))

Binder | EC50 of neutralisation of CHIKV-IbH35 (FRNT on Vero cells) [1] [µg/mL] | EC90 of neutralisation of CHIKV-IbH35 (FRNT on Vero cells) [1] [µg/mL] | EC50 of neutralisation of CHIKV-RSU1 (FRNT on Vero cells) [2] [µg/mL] | EC90 of neutralisation of CHIKV-RSU1 (FRNT on Vero cells) [2] [µg/mL]
B1 | 0.006 | 0.104 | 0.005 | 1.32
B2 | 0.082 | 2.58 | 0.04 | 2.18
B3 | 0.001 | 0.006 | 0.003 | 0.015
B4 | 0.002 | 0.051 | 0.004 | 0.048
